Reference: patent publication US20050054014A1
Starred links: 1 amine or outer side, 2 acyl side, 3 side chain; linkers in the order of their positions; H or OH if unused. Non-standard residues stand in square brackets, D forms with d. No end group written: not given here. βAsp = O=C(O)[C@H](CC(=O)[*:2])N[*:1]

Assays:
[1] = target: polyclonal AG1-1 specific rabbit antiserum; assay: competitive ELISA, BSA-BS^3-AG1-1 coated plates, free peptide as competitor
[2] = target: AG1-1 specific monoclonal antibody F49; assay: competitive ELISA, biotin-GRVRVD-β-SAY on streptavidin plates, free peptide as competitor

Binder | fold higher reactivity compared with the non-boiled form [1] [fold] | fold higher reactivity compared with the αL form [2] [fold]
GRVRVNSAY (also: heated mixture: Asn6 partly converted to βL, αD and βD forms) [AG1-1 peptide … heated at 90° C. for 4 hours] | 7 | 
GRVRV[βAsp]SAY [AG1-1 peptide, isomerized (βL) form] |  | > 500
